Assay results as given in paper PMC6907089.

What was measured:
Experiment in all cases: BioID proximity labeling, quantitative mass spectrometry
Conditions in all cases: inducible HEK293 cells; read off a plot
AL1A2 = molecular target: AL1A2
AP2B1 = molecular target: AP2B1
CCD43 = molecular target: CCD43
CDKAL = molecular target: CDKAL
CHM4B = molecular target: CHM4B
CKSP2 = molecular target: CKSP2
COPA = molecular target: COPA
COPB2 = molecular target: COPB2
COPB = molecular target: COPB
COPD = molecular target: COPD
COPE = molecular target: COPE
CPIN1 = molecular target: CPIN1
DBLOH = molecular target: DBLOH
DBNL = molecular target: DBNL
DHYS = molecular target: DHYS
EFHD2 = molecular target: EFHD2
EIF3D = molecular target: EIF3D
ELP4 = molecular target: ELP4
EMC2 = molecular target: EMC2
GRWD1 = molecular target: GRWD1
ICAL = molecular target: ICAL
N4BP1 = molecular target: N4BP1
NHLC2 = molecular target: NHLC2
NSF = molecular target: NSF
NSMA3 = molecular target: NSMA3
PAPOA = molecular target: PAPOA
RFA2 = molecular target: RFA2
RFA3 = molecular target: RFA3
S23IP = molecular target: S23IP
SAHH2 = molecular target: SAHH2
SEPT9 = molecular target: SEPT9
SNP29 = molecular target: SNP29
SYAP1 = molecular target: SYAP1
TBD2B = molecular target: TBD2B
TES = molecular target: TES
TXND9 = molecular target: TXND9
VRK2 = molecular target: VRK2
WDR44 = molecular target: WDR44
XIAP = molecular target: XIAP
ZYX = molecular target: ZYX
syntaxin 5 (STX5) = syntaxin 5 (STX5) (UniProt Q13190)
SH3G1 = molecular target: SH3G1
TBPL1 = molecular target: TBPL1

Sequence of UniProt Q13190 (Q13190 whole entry): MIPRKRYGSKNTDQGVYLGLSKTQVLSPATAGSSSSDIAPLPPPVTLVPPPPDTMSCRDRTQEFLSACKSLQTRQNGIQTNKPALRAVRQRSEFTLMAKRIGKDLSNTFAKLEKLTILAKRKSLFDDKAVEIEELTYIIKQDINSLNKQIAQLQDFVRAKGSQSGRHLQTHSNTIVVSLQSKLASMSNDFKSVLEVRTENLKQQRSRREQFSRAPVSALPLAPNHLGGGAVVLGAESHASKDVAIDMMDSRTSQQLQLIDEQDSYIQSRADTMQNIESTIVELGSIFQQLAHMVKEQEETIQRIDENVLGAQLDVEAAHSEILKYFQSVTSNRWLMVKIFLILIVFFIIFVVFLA

“STING H232 (wild-type; wt) (from UniProt Q86WV6) G207E” gave a ratio to parent (AL1A2) of 0.39, a ratio to parent (AP2B1) of 0.35 and a ratio to parent (CCD43) of 0.46. The ratio to parent (CDKAL) was 0.4, the ratio to parent (CHM4B) was 0.41 and the ratio to parent (CKSP2) was 0. For the same substance, the ratio to parent (COPA) was 0.31, the ratio to parent (COPB2) was 0.36 and the ratio to parent (COPB) was 0.35. It also gave a ratio to parent (COPD) of 0.28, a ratio to parent (COPE) of 0.22 and a ratio to parent (CPIN1) of 0.46. The ratio to parent (DBLOH) was 0.48, the ratio to parent (DBNL) was 0.47 and the ratio to parent (DHYS) was 0. The ratio to parent (EFHD2) was 0.38, the ratio to parent (EIF3D) was 0.23 and the ratio to parent (ELP4) was 0.38. For the same substance, the ratio to parent (EMC2) was 0.48, the ratio to parent (GRWD1) was 0.46 and the ratio to parent (ICAL) was 0. It also gave a ratio to parent (N4BP1) of 0.27, a ratio to parent (NHLC2) of 0 and a ratio to parent (NSF) of 0.37. It also gave a ratio to parent (NSMA3) of 0.21, a ratio to parent (PAPOA) of 0.4 and a ratio to parent (RFA2) of 0.32. The ratio to parent (RFA3) was 0.34, the ratio to parent (S23IP) was 0.39 and the ratio to parent (SAHH2) was 0.36. The ratio to parent (SEPT9) was 0.3, the ratio to parent (SNP29) was 0.26 and the ratio to parent (SYAP1) was 0.41. For the same substance, the ratio to parent (TBD2B) was 0.39, the ratio to parent (TES) was 0.47 and the ratio to parent (TXND9) was 0.36. It also gave a ratio to parent (VRK2) of 0.46, a ratio to parent (WDR44) of 0.32 and a ratio to parent (XIAP) of 0.21. The ratio to parent (ZYX) was 0.29 and the ratio to parent (syntaxin 5 (STX5)) was 0.47.
STING R232 (from UniProt Q86WV6) G207E showed a ratio to parent (AL1A2) of 0.05, a ratio to parent (AP2B1) of 0.72 and a ratio to parent (CCD43) of 0.38. For the same substance, the ratio to parent (CDKAL) was 0.2, the ratio to parent (CHM4B) was 0.14 and the ratio to parent (CKSP2) was 0.41. For the same substance, the ratio to parent (COPA) was 0.04, the ratio to parent (COPB2) was 0.06 and the ratio to parent (COPB) was 0.1. The ratio to parent (COPD) was 0.1, the ratio to parent (COPE) was 0.28 and the ratio to parent (CPIN1) was 0.17. It also gave a ratio to parent (DBLOH) of 0.26, a ratio to parent (DBNL) of 0.24 and a ratio to parent (DHYS) of 0. It also gave a ratio to parent (EFHD2) of 0.44, a ratio to parent (EIF3D) of 0.31 and a ratio to parent (ELP4) of 0.75. The ratio to parent (EMC2) was 0, the ratio to parent (GRWD1) was 0.26 and the ratio to parent (ICAL) was 0.57. For the same substance, the ratio to parent (N4BP1) was 0.41, the ratio to parent (NHLC2) was 0.24 and the ratio to parent (NSF) was 0.57. For the same substance, the ratio to parent (NSMA3) was 0.28, the ratio to parent (PAPOA) was 0.96 and the ratio to parent (RFA2) was 0.43. The ratio to parent (RFA3) was 0.47, the ratio to parent (S23IP) was 0.19 and the ratio to parent (SAHH2) was 0.2. The ratio to parent (SEPT9) was 0.12, the ratio to parent (SH3G1) was 0.2 and the ratio to parent (SNP29) was 0.09. For the same substance, the ratio to parent (SYAP1) was 0.5, the ratio to parent (TBD2B) was 0.5 and the ratio to parent (TBPL1) was 0.49. It also gave a ratio to parent (TES) of 0.72, a ratio to parent (TXND9) of 0.53 and a ratio to parent (VRK2) of 0. For the same substance, the ratio to parent (WDR44) was 0.75, the ratio to parent (XIAP) was 0.57 and the ratio to parent (ZYX) was 0.8. For the same substance, the ratio to parent (syntaxin 5 (STX5)) was 0.27.
